Test results reported in PMC3154886 (Molecular Biology of the Cell, 2011).

Molecular target: Human EB3 (end-binding protein 3) (human, UniProt Q9UPY8 1-281)
Test: cross-linking

Sequence of Human EB3 (end-binding protein 3) (Q9UPY8 whole entry): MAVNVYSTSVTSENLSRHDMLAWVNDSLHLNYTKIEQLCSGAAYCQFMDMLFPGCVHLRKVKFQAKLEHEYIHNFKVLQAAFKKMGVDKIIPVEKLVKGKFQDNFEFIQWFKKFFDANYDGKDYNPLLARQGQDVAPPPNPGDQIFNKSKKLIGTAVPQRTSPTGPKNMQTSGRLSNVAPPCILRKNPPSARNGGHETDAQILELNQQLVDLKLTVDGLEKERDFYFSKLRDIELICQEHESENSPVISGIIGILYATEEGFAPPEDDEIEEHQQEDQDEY

binding result: binds
B1: Human EB1 (end-binding protein 1) (natural protein)
chain: MAVNVYSTSVTSDNLSRHDMLAWINESLQLNLTKIEQLCSGAAYCQFMDMLFPGSIALKKVKFQAKLEHEYIQNFKILQAGFKRMGVDKIIPVDKLVKGKFQDNFEFVQWFKKFFDANYDGKDYDPVAARQGQETAVAPSLVAPALNKPKKPLTSSSAAPQRPISTQRTAAAPKAGPGVVRKNPGVGNGDDEAAELMQQVNVLKLTVEDLEKERDFYFGKLRNIELICQENEGENDPVLQRIVDILYATDEGFVIPDEGGPQEEQEEY
